Results: US12441811B2, “Compositions and methods for treating serpin B13 disorders” (REGENTS OF THE UNIVERSITY OF MINNESOTA, priority 2019, dated 2025)
“Also recorded” adds a separate entry of the source.

Assays:
catL = catL protease activity in cell extract from pancreatic tissue in vitro; format: biochemical; conditions: mAb added to cell extract from pancreatic tissue in vitro
[1] = system: Ngn3+ endocrine progenitor cells; test: Ngn3+ cells in embryonic pancreas after antibody injection into pregnant mice; format: in vivo, mouse; conditions: for number of Ngn3+ cells in the embryonic pancreas: pregnant mice i.p. 50 μg daily E10.5 through E13.5, E16.5 and birth, vs control Ab
Protocol: The control mouse mAb (clone TIB92) was from ATCC (Manassas, VA, USA). The recombinant human control Ab (cat. No 403502) was from BioLegend (San Diego, CA). In most of the experiments, anti-serpinB13 mAb (clone B29) or control mouse mAb was injected i.p. into pregnant female mice at 50 μg for four consecutive days, starting at gestational day E10.5 (total dose of 200 μg). In the lineage tracing experiments in adult mice, B29 was injected i.p. for 7 days at 100 μg/injection during the first week after STZ treatment (total dose of 700 μg).
Processing of pancreatic tissue for immunofluorescence microscopy. The pancreatic tissues were isolated and fixed either overnight (adult pancreases), or for one hour (embryonic pancreas explants), in 2% PFA (pH 7.4), followed by a two-step saturation process: first in a 30% sucrose solution in PBS and then in optimal cutting temperature (OCT) compound. After complete saturation, the tissues were imbedded in OCT using Cryomold and then snap frozen in an ethanol/dry ice bath. The OCT blocks were serially cut through the entire organ to obtain representative sections every 600 μm (6 to 8 sections per adult pancreas), 50 μm (12 to 14 sections per E16.5 embryonic pancreas), 35 μm (10 to 12 sections per E14.5 embryonic pancreas), or 15 μm (10 to 12 sections per E12.5 embryonic pancreas cultured for 1 to 3 days). For the embryonic linage tracing experiments, three largest sections were taken for the analysis. For all other experiments involving immunofluorescence microscopy, all obtained sections were analyzed.
The sections from the pancreases of embryos at age E14.5 and E16.5, and newborn pups (OP), were stained with anti-Ngn3 antibody to determine the total number of endocrine progenitors cells for all sections per explant combined (FIG. 9G, FIG. 17A). Alternatively, the sections representing the pancreases of embryos at age E12.5 (which are considerably smaller) were stained with both anti-Ngn3 and anti-CK19 antibodies to determine the fraction of CK19-positive area that was occupied by Ngn3− positive staining (FIGS. 9D, 10A, 10C, 12D, 12G, 12J and FIGS. 15A, 20B). The following formula was used to adjust for any differences in the pancreas size: (Ngn3^+ cell number/μm^2 of CK19^+ cells)×10^5.
Image analysis. […] To classify and quantify the images in unbiased fashion, we defined the following four classes for the analysis: Ngn3^+ cells, the clusters of cytokeratin 19^+ cells, the negatively stained areas, and background (e.g., the area outside of tissue sample). […] For the unbiased quantitative analysis of β-cells and islets in the whole pancreatic sections, Visiopharm Author module was trained to recognize insulin-positive β-cell clusters with diameter greater than 50 μm as well as negatively stained section area. […]

[2] = system: streptozotocin-induced diabetes; test: STZ-induced diabetes in adult offspring with gestational exposure to anti-serpinB13 mAb; format: in vivo, mouse; conditions: for preserved residual β-cell mass: 4 weeks after STZ 150 mg/kg in adulthood; for preserved residual β-cell mass / diabetes / severity of the disease: prenatal exposure; for diabetes / severity of the disease: STZ injected in adulthood, vs control antibody
Description: Calculation of the islet mass. In embryos, the β-cell mass was expressed as the percentage of the area of all pancreatic sections combined, that positively stained with anti-insulin antibody. To calculate β-cell mass in adult mice, the percentage insulin-positive area was multiplied by the pancreas weight expressed in milligrams.
Diabetes induction and monitoring. C57BL/6 male mice, which are susceptible to STZ-induced diabetes, were subjected to a 6-hour period of bedding removal and fasting with unlimited access to drinking water. At the end of fasting, STZ was dissolved in a freshly prepared buffer (50 mM Sodium Citrate, pH 4.5) and immediately injected i.p. at 150 mg/kg. The glucose levels in tail blood were measured at random every 7 days for 4 weeks. Alternatively, to perform the glucose tolerance test, STZ-treated C57BL/6J male mice were first fasted for 6 hours with unlimited access to drinking water, and then injected i.p. with a 10% D-(+)-glucose solution (10 μL/g body weight). A glucometer (One-Touch Ultra) was used to monitor glucose levels using tail blood collected before glucose injection, and after injection at 30-min intervals for 2 hours. For glucometer glucose readings “above 600 mg/dL”, the data were extrapolated to the value of 700 mg/dL for algebraic statistical purposes only.

B1: B29: mouse monoclonal antibody to serpin B13, clone B29; heavy chain SEQ ID NO:14, kappa light chain SEQ ID NO:16 (antibody, V domains shown)
VH: QIQLVQSGPELKKPGETVKISCKASGYTFTTYGMSWVKQAPGKGLKWMGWINTYSGMPTYADDFKGRFAFSLETSATTAYLQINNLKNEDTATYFCARPLLGLDYWGQGTTLTVSS
VL: DIVMTQTPLSLSVTIGQPASISCKSSQSLLHSDGKTFLNWFLQRPGQSPKLLIYLVSKLESGIPDRFSGSGSGTDFTLKISRVEVEDLGVYYCLQHTHFPLTFGAGTKLEIK
protease activity of catL (catL): dose-dependently enhanced | fractions of pancreatic microscopic sections positively stained with anti-insulin antibody ([1]; E16.5 embryos exposed in vivo vs control Ab): significantly higher fractions | Ngn3 protein levels ([1]; Western blot, E16.5, pregnant mice i.p. 50 μg daily E10.5-E13.5): robust increase | number of Ngn3+ cells in the embryonic pancreas [1]: increased; also recorded: significant increase; also recorded: robust increase | number of Ngn3+ cells in the embryonic pancreas ([1]; listed as mAb): robust increase | loss of body weight ([2]; 1-4 weeks after STZ): prevented | serum creatinine as a measure of renal function ([2]; 4 weeks after STZ): improved | preserved residual β-cell mass ([2]; listed as anti-serpinB13 mAb): over two-fold greater | preserved residual β-cell mass ([2]; listed as serpinB13 mAb): higher | diabetes / severity of the disease [2]: helped to prevent severe diabetes | diabetes / severity of the disease ([2]; listed as anti-serpinB13 antibody): improved outcomes | diabetes / severity of the disease ([2]; listed as anti-serpinB13 mAb): either completely protected against diabetes (FIG. 24A-24B), or ameliorated the severity of the disease | diabetes / severity of the disease ([2]; listed as mAb): improved resistance | diabetes / severity of the disease ([2]; listed as serpinB13 mAb): reduced severity of disease | blood glucose control ([2]; ipGTT at 2 weeks, random glucose 1-4 weeks after STZ): improved
